Consider six molecules from US20210403582A1 (JACOBIO PHARMACEUTICALS, published 2021).

As a reminder, the IC50 is the point on the concentration scale where inhibition reaches its midpoint. The term Kd denotes the constant that tells how readily two partners part at equilibrium. Read a high Kd as a looser complex. The term koff denotes the rate constant with which the complex falls apart. One may read the kon as the second-order rate constant of association. As usually defined, the EC50 (read off the curve) is the concentration at which the effect is half-maximal. Read a low EC50 (read off the curve) as an effect from little substance.

Assay [1] deals with T1, human LIF protein (human, UniProt P15018 23-202). Nature of the assay: cell-based or functional assay.
Assay [2] addresses human IL-6 (human, UniProt P05231 30-212, limits assumed). The assay can be described thus: ELISA, human IL-6 coated at 1 µg/mL, HRP goat anti-mouse Fab, A450. The procedure: (§1) After washed four times with PBST, HRP-labeled goat anti-mouse Fab secondary antibodies were added and incubated at room temperature for 1 h. After washed four times with PBST, TMB colored solution was added and color developing for 10 min at room temperature. The absorption value at 450 nm was read by the enzyme maker. The data were analyzed and plotted using Origin pro 9 software.

Assay [3] addresses T2, human OSM (human, UniProt P13725 26-221, limits assumed).
T2 sequence (looked up): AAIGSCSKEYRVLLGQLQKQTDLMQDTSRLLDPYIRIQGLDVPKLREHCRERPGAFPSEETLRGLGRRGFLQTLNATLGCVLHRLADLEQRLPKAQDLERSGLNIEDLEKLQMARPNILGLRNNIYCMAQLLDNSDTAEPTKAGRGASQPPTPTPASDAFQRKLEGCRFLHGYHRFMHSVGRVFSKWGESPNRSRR
The assay can be described thus: ELISA, human OSM coated at 1 µg/mL, HRP goat anti-mouse Fab, A450. How it is done: as §1
On the technique in general: In an ELISA, binding on a coated surface is turned into a signal by an enzyme label.

Assay [4] concerns the target T1, human LIF protein. The assay can be described thus: competition ELISA, LIF coated, competitor LIFR-Fc 0.6125 ug/mL detected with anti-human Fc.
The target in assay [5] is T3, human CNTF (human, UniProt P26441 1-200, limits assumed).
T3 sequence (looked up): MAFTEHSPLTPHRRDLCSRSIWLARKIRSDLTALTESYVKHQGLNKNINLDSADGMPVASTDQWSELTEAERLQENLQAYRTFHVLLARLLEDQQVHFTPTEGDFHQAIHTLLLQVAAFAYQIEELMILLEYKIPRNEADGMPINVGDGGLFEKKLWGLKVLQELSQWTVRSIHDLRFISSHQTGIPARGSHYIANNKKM
The assay can be described thus: ELISA, human CNTF coated at 1 µg/mL, HRP goat anti-mouse Fab, A450. The procedure: as §1

For assay [6], the target named is T1, human LIF protein. Nature of the assay: ELISA, antigen coated 0.5 ug/ml, 293S supernatant heated 70 C 5 min, antibody 1 ug/mL. How it is done: (§2) Each well was coated with 100 μL of 0.5 μg/ml antigen and incubate overnight at 4° C., and the plates were washed three times with 300 μL of Wash Buffer. The plates were closed with 200 μL of Closure Buffer (2% bovine serum albumin) for 60 min at room temperature. The plates were washed three times with 300 μL of Wash Buffer. 100 μL of diluted anti-LIF antibody at different concentrations was added to each well and incubate for 1 hour at room temperature. The plates were washed 4 times with 300 μL of Wash Buffer. 100 μL of HRP-labeled goat anti-human Fc secondary antibody at a dilution of 1:5000 was added and incubate for 1 hour at room temperature. The plates were washed 6 times with 300 μL of Wash Buffer. 100 μL of H₂O₂-Amplx Color Development Solution was added for developing the color for 10 min at room temperature under dark conditions. The OD 450 value was read by an enzyme marker. Heat treatment: the expression medium was heated on the PCR machine at 70° C. for 5 min and then rapidly cooled to room temperature. Perform subsequent ELISA assays as above.

Assay [7] deals with T1, human LIF protein. The assay can be described thus: ELISA, antigen coated 0.5 ug/ml, 293S supernatant heated 70 C 5 min, antibody 0.04 ug/mL. How it is done:
as §2

Assay [8] deals with T1, human LIF protein. Nature of the assay: BLI (Gator), antibody on anti-human Fc biosensor, human LIF in solution. The procedure: The affinity of anti-LIF antibody to human LIF protein was determined using Gator. The anti-human LIF antibody was first diluted to 5 ug/mL with PBS and then added to A-F wells in second column of the 96-well plate (200 μL per well). […] PBS was added to A-F wells in the first and third columns (200 μL per well). The 96-well plates were placed into the instrument and detected with anti-human Fc biosensor.

In assay [9] the target is T1, human LIF protein. Nature of the assay: ELISA, antigen coated 0.5 ug/ml, 293S supernatant non-heated, antibody 0.04 ug/mL. How it is done: as §2
Assay [10] addresses T1, human LIF protein. Nature of the assay: ELISA, antigen coated 0.5 ug/ml, 293S supernatant non-heated, antibody 1 ug/mL. How it is done: as §2
The target of assay [11] is T1, human LIF protein. Nature of the assay: ELISA, antigen coated 0.5 ug/ml, 293S supernatant heated 70 C 5 min, antibody 0.2 ug/mL. How it is done: as §2
The target in assay [12] is T1, human LIF protein. The assay can be described thus: ELISA (non-heated), purified IgG on antigen coated at 0.5 µg/mL, 3-fold dilutions.
The target in assay [13] is T1, human LIF protein. The assay can be described thus: ELISA, antigen coated 0.5 ug/ml, 293S supernatant non-heated, antibody 0.2 ug/mL. How it is done: as §2
Assay [14] deals with T1, human LIF protein. Nature of the assay: ELISA (heated), antibody kept at 70 °C for 5 min before the ELISA, antigen coated at 0.5 µg/mL.

T1 sequence (P15018 23-202 limits assumed): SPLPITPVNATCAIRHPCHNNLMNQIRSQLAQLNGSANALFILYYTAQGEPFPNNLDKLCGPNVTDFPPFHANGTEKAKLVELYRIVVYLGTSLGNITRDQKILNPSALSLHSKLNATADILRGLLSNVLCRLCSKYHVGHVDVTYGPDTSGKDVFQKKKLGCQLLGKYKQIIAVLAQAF
human IL-6, sequence (P05231 30-212 limits assumed): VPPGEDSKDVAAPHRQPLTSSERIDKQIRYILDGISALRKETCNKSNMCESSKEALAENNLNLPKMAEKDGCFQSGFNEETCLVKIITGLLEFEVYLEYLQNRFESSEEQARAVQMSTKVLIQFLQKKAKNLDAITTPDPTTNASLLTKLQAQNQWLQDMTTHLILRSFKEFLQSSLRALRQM

B1: 38E HuH3L2-m (antibody, mouse IgG1, kappa)
heavy: EVMLVESGGGLVQPGGSLRLSCAASGFIFSSYAMSWVRQAPETRLEWVATISSGGSNTYSPDTVKGRFTISRDNSKNTLYLQMNSLRAEDTAMYYCARYYGYYFDFWGQGTLLTVSSAKTTPPSVYPLAPGSAAQTNSMVTLGCLVKGYFPEPVTVTWNSGSLSSGVHTFPAVLQSDLYTLSSSVTVPSSTWPSETVTCNVAHPASSTKVDKKIVPRDCGCKPCICTVPEVSSVFIFPPKPKDVLTITLTPKVTCVVVDISKDDPEVQFSWFVDDVEVHTAQTQPREEQFNSTFRSVSELPIMHQDWLNGKEFKCRVNSAAFPAPIEKTISKTKGRPKAPQVYTIPPPKEQMAKDKVSLTCMITDFFPEDITVEWQWNGQPAENYKNTQPIMDTDGSYFVYSKLNVQKSNWEAGNTFTCSVLHEGLHNHHTEKSLSHSPGK
light: DIHMTQSPSSLSASVGDRVTITCRASENIYSYLAWYQQKPGKSPKLLVYNAKTLAEGVPSRFSGSGSGTDFTLTISSLQPEDFATYYCQHHYVTPLTFGQGTKLEIKRADAAPTVSIFPPSSEQLTSGGASVVCFLNNFYPKDINVKWKIDGSERQNGVLNSWTDQDSKDSTYSMSSTLTLTKDEYERHNSYTCEATHKTSTSPIVKSFNRNEC
notes: Humanized variable regions of 38E HuH3L2 on mouse IgG1 / kappa constant regions
As for B1, the “EC50, reversal of proliferation inhibition of M1 cells (CCK-8)” value in assay [1] is 8.93 µg/mL. For the same molecule, the binding result in assay [2], in [3] and in assay [5] was “no binding (tested: 25 ug/ml)” throughout. Besides, the IC50 in [4] came out at 0.145 µg/mL.

B2: 38E10E1C11 chimeric antibody (antibody, human IgG1, kappa)
heavy: not shown
light: DIHMTQSPASLSASVGETVTITCRASENIYSYLAWYQQKQGKSPQLLVYNAKTLAEGVPSRFSGSGSGTQFSLKINSLQPEDFGSYYCQHHYVTPLTFGAGTKLELKRTVAAPSVFIFPPSDEQLKSGTASVVCLLNNFYPREAKVQWKVDNALQSGNSQESVTEQDSKDSTYSLSSTLTLSKADYEKHKVYACEVTHQGLSSPVTKSFNRGEC
notes: Mouse variable regions of 38E10E1C11 with human IgG1 / kappa constant regions; also called 38E Chimeric; 38E chimeric antibody
Regarding B2, the ELISA signal in assay [6] was found to be 10600; in assay [7], 4730; in [9], 6780; in assay [10], 11400; in assay [11], 8840; in [13], 10400. In assay [8], this molecule yielded a dissociation constant Kd of 0.0233 nM. In assay [8], the koff came out at 1.57e-05 s⁻¹. This molecule also displayed a kon in assay [8] of 677000 M⁻¹ s⁻¹. Further, the “EC50 (read off the curve)” value in assay [12] was approximately 0.07 µg/mL.

B3: 38E HuH1L1 (antibody, human IgG1, kappa, N297A)
heavy: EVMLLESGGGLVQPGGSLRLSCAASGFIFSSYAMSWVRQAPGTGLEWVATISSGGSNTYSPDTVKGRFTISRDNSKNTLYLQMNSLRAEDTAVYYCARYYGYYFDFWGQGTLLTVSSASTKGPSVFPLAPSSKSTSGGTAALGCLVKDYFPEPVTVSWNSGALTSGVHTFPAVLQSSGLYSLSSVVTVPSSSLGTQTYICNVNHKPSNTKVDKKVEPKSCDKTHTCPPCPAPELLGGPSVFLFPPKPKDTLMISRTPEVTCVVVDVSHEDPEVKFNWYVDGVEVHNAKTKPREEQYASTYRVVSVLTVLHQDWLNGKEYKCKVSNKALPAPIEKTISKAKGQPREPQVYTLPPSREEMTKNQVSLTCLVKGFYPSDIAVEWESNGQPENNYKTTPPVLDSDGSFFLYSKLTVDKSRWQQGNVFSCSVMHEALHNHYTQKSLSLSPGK
light: DIQMTQSPSSLSASVGDRVTITCRASENIYSYLAWYQQKPGKSPKLLVYNAKTLAEGVPSRFSGSGSGTDFTLTISSLQPEDFATYYCQHHYVTPLTFGQGTKLEIKRTVAAPSVFIFPPSDEQLKSGTASVVCLLNNFYPREAKVQWKVDNALQSGNSQESVTEQDSKDSTYSLSSTLTLSKADYEKHKVYACEVTHQGLSSPVTKSFNRGEC
notes: Humanized, human IgG1 / kappa
Consider B3, for which the ELISA signal in assay [6] came out at 9800; in [7] it was 5970; in assay [9], 6850; in assay [10], 11800; in assay [11], 9010; in assay [13], 10600. The Kd in assay [8] was found to be 0.0817 nM. For the same molecule, the koff in [8] came to 4.65e-05 s⁻¹. For the same molecule, in assay [8], the kon is 569000 M⁻¹ s⁻¹. Moreover, the “EC50 (read off the curve)” value in [14] is approximately 0.1 µg/mL; in assay [12] it was approximately 0.07 µg/mL.

B4: H3L3 (antibody, human IgG1, kappa, N297A, V domains shown)
VH: EVMLVESGGGLVQPGGSLRLSCAASGFIFSSYAMSWVRQAPETRLEWVATISSGGSNTYSPDTVKGRFTISRDNSKNTLYLQMNSLRAEDTAMYYCARYYGYYFDFWGQGTLLTVSS
VL: DIHMTQSPSSLSASVGDRVTITCRASENIYSYLAWYQQKPGKSPQLLVYNAKTLAEGVPSRFSGSGSGTQFTLTISSLQPEDFATYYCQHHYVTPLTFGQGTKLEIKR
notes: Humanized, human IgG1 / kappa
Turning to B4, the ELISA signal in assay [6] is 9540; in [7], 5390; in [9] it was 6760; in assay [10] it was 11300; in [11], 8900; in assay [13], 11000.

B5: 38E HuH1L4 (antibody, human IgG1, kappa, N297A, V domains shown)
VH: EVMLLESGGGLVQPGGSLRLSCAASGFIFSSYAMSWVRQAPGTGLEWVATISSGGSNTYSPDTVKGRFTISRDNSKNTLYLQMNSLRAEDTAVYYCARYYGYYFDFWGQGTLLTVSS
VL: DIHMTQSPSSLSASVGDRVTITCRASENIYSYLAWYQQKQGKSPQLLVYNAKTLAEGVPSRFSGSGSGTQFTLKINSLQPEDFATYYCQHHYVTPLTFGQGTKLEIKR
notes: Humanized, human IgG1 / kappa
For B5, the ELISA signal in [6] was 10500; in assay [7], 5670; in [9], 7320; in assay [10], 11900; in assay [11] it was 9700; in assay [13] it was 10900. In addition, the “EC50 (read off the curve)” value in [14] was approximately 0.3 µg/mL; in [12], approximately 0.07 µg/mL.

B6: 38E HuH2L4 (antibody, human IgG1, kappa, V domains shown)
VH: EVMLVESGGGLVQPGGSLRLSCAASGFIFSSYAMSWVRQAPGTGLEWVATISSGGSNTYSPDTVKGRFTISRDNSKNTLYLQMNSLRAEDTAMYYCARYYGYYFDFWGQGTLLTVSS
VL: DIHMTQSPSSLSASVGDRVTITCRASENIYSYLAWYQQKQGKSPQLLVYNAKTLAEGVPSRFSGSGSGTQFTLKINSLQPEDFATYYCQHHYVTPLTFGQGTKLEIKR
notes: Humanized, human IgG1 / kappa
Turning to B6, the ELISA signal in assay [6] is 10600; in assay [7], 5700; in [9], 6880; in assay [10], 11800; in [11], 9230; in assay [13], 10900. Also, the entries for the “EC50 (read off the curve)” value in assay [14] and in assay [12] were approximately 0.3 µg/mL and approximately 0.07 µg/mL, respectively.
